Results on 1 substance are retold here after PMC10638201, “Application of electrospun chitosan-based nanofibers as immobilization matrix for biomolecules” (Applied Microbiology and Biotechnology, 2023).

In this assay the target is 6xHis-eugenol-oxidase-StrepTag-II (recombinant eugenol oxidase from Rhodococcus jostii) (Rhodococcus sp. RHA1). Kind of assay: SEC; pure EUGO on Superdex 200 10/300 GL (AKTA Pure), 100 uL loaded, 0.5 mL/min, running buffer 50 mM Tris-Base pH 8 with 150 mM NaCl; size estimated from a protein standard mix (15-600 kDa).

In general, stoichiometry N refers to a count of units in the complex or per binding partner. “6xHis-eugenol-oxidase-StrepTag-II (recombinant eugenol oxidase from Rhodococcus jostii) (enzyme)”: the stoichiometry N was 2.
